{"source": "the DeepSol protein solubility set", "data": [{"test": "soluble on expression in E. coli; label from the status in PepcDB or PDB records", "values": [{"sequence": "MTELEEIGININSIENTEQIISQLMDNYSDDVLHLVFSYVKNRTTAEDLTQEIFIKCYEKLDQFNNKSSIKTWLYRIAINHCKDYLGSWHYRKLNFSEKIWNYLPSKSKHVEEEIIAKDVANSLMSAVMDLPVKYREVVFLHYYEELSLANISKITGVNSNTLKTRLKHARELLKTKMKKEV", "soluble on expression in E. coli": "not soluble"}, {"sequence": "MTEPKKEIIEDENHGISKKIPTDPRQYEKVTEGCRLLVMMASQEEERWAEVISRCRAANGSIKFYVHYIDCNRRLDEWVQSDRLNLASCELPKKGGKKGAHLREENRDSNENEGKKSGRKRKIPLLPMDDLKAESVDPLQAISTMTSGSTPSLRGSMSMVGHSEDAMTRIRNVECIELGRSRIQPWYFAPYPQQLTSLDCIYICEFCLKYLKSKTCLKRHMEKCAMCHPPGNQIYSHDKLSFFEIDGRKNKSYAQNLCLLAKLFLDHKTLYYDTDPFLFYVLTEEDEKGHHIVGYFSKEKESAEEYNVACILVLPPFQKKGYGSLLIEFSYELSKIEQKTGSPEKPLSDLGLLSYRSYWSMAIMKELFAFKRRHPGEDITVQDISQSTSIKREDVVSTLQQLDLYKYYKGSYIIVISDEKRQVYEKRIEAAKKKTRINPAALQWRPKEYGKKRAQIMF", "soluble on expression in E. coli": "not soluble"}, {"sequence": "MTESAPSAFFTTSTPADHVHEEESSNTGYFENLPENDIHSFFEIDATSEWIKQGNHQRIALQFPDSLLPYSEKVTKLIESRFRSESAKKTFVLADTSYRSCCVDEVAAAHADCTALVHFGEACHSAPTDKIDVKYVLGSMPIFIDQFRMEFQNVADQLTAEHIVLLMDSCFSHEQEKVAAVIKEVLPGNRHVECSLLPSEDVLKQNRQNIYLGREIPSCLRNNQPTDLIFCGFPNSPLLPIWLLSYPSCSTVSHFNPINKTIQHESTRSSRLLRKRLFLVEKLKDADTVGLVVGSVGVDKHREAVKRMREMCKKAGKKIYVISVGKINVPKLSNFSTDIDVFVLLSCPFGVVLDSSDYFRPVVSYFEAEIALNPAKTWAADFGWSAEFAAFLEDKIETEVPDDKAAGDFSLISGKVRVQKTEEEKNGDGPSSVAIYNPGYCNDRTWKGLNDGVSTAEDSTKMGEGRSGIAQGYSGK", "soluble on expression in E. coli": "not soluble"}, {"sequence": "MTETPMMDDLERVLYNQDDIQKRIRELAAELTEFYEDKNPVMICVLTGAVFFYTDLLKHLDFQLEPDYIICSSYSGTKSTGNLTISKDLKTNIEGRHVLVVEDIIDTGLTMYQLLNNLQMRKPASLKVCTLCDKDIGKKAYDVPIDYCGFVVENRYIIGYGFDFHNKYRNLPVIGILKESVYT", "soluble on expression in E. coli": "soluble"}, {"sequence": "MTFAWGRGSHGGAGMRIVQITDTHFSPTKAHFNGNWAPLAAWIEQSGADLVIHTGDLSVDGADRDDDIAFCMDLMREISAPMLLVPGNHDVGHLPGSLQPVNAGRLERWRRLVGPDYWMEDAGSWRLIGLDSLLMGFDDAEEEAQFDWLRTVLESRGGRRVALFAHKPLFVDAPGEGDTGYWSVRPAQRQRLYDLIATHDVALFASGHLHRAWQGKYENTSLVWGPSAAFVVGDMERDMPGERLLGAVIHQFSDTVTSEIVAIPGMTAYVLDDVVAEVYPHEAHKARKRVASLEHHHHHH", "soluble on expression in E. coli": "not soluble"}, {"sequence": "MTFFPEIDIQKTKSNAKRKLREYPRWRRIANDVDTQKVTATYSFEPRQSHGVPSKPVERLALNRVSAEQELDAIEQAVSMILEPERRRILYDKYLAPYKKADKVIYTELCMSESFYYDTLDIALLAFAELYREGVLLVEEGVFS", "soluble on expression in E. coli": "not soluble"}, {"sequence": "MTFMKLYFFGDDNNKPKLSEHLIIYILSLLDPKSQSVASLVNKDWSRLVQLTRQYLSMLPVIHRIPLFANLGLDVLKLKLMTGGMTNSTVRLRIKNAPEKWVMRIPGIGSSAFITRRDEAHNAKQAEKLGLNVPIAFFDPEDGLQVTRFIEGVHSLDDKALARKEILHEVASMMRRLHKSPPFDNNTLFFERNEELLDLLKRKPFNFPGEIEFVEQQMKNLKEIFSSYHIQQFPCHNDTTPLNFILSENPEIKGSEKIHQIDWEYSSNNDFIWDLVYFMVEAKLNREQQLILLKAYFNTEELSDSLLAWIEVYKPIIEWWITIWSWTQLANGANAVDLSSYEQLGLERYHNTLSHLKSEDYVKALALIEADSHSLTFTGQRPF", "soluble on expression in E. coli": "not soluble"}, {"sequence": "MTFSLFGDKFTRHSGITLLMEDLNDGLRTPGAIMLGGGNPAQIPEMQDYFQTLLTDMLESGKATDALCNYDGPQGKTELLTLLAGMLREKLGWDIEAQNIALTNGSQSAFFYLFNLFAGRRADGRVKKVLFPLAPEYIGYADAGLEEDLFVSARPNIELLPEGQFKYHVDFEHLHIGEETGMICVSRPTNPTGNVITDEELLKLDALANQHGIPLVIDNAYGVPFPGIIFSEARPLWNPNIVLCMSLSKLGLPGSRCGIIIANEKIITAITNMNGIISLAPGGIGPAMMCEMIKRNDLLRLSETVIKPFYYQRVQETIAIIRRYLPEDRCLIHKPEGAIFLWLWFKDLPITTEQLYQRLKARGVLMVPGHNFFPGLDKPWPHTHQCMRMNYVPEPEKIEAGVKILAEEIERAWAESH", "soluble on expression in E. coli": "soluble"}, {"sequence": "MTFVPLNPIPLKDRTSMIFLQYGQIDVLDGAFVLIDKTGIRTHIPVGSVACIMLEPGTRVSHAAVRLASTVGTLLVWVGEAGVRVYSSGQPGGARADKLLYQAKLALDDDLRLKVVRKMYELRFREPPPARRSVEQLRGIEGSRVRATYALLAKQYGVKWHGRNYDPKDWEKGDVVNRCISAATSCLYGISEAAILAAGYAPAIGFIHSGKPLSFVYDIADIIKFESVVPKAFEIAARHPAEPDKEVRLACRDIFRSSKLTGKLIPLIEEVLAAGEIEPPQPAPDMLPPAIPEPESLGDSGHRGHG", "soluble on expression in E. coli": "not soluble"}, {"sequence": "MTGASRPPKSRRSAAAAPSPEGLTLDLERYVPAFITFIANKLSNSATAFYQGNFGVNVTEWRIMSLLAIEPGISAARICQVIGFNKGPVSRTLSDMQSRGLITIRVDPNDARTHSISLTGKGRATHDKVIVAALERERKLMSCLSADEQEVLIDLLRRLHNNLGAVTGETT", "soluble on expression in E. coli": "not soluble"}, {"sequence": "MTGEIVTVVKGKVRWVEGEQFIGRIEGDKCSVILGEGGISPMKLLLLSVAGCTSYDVVMILKKMREPIKGLEVEIEGVRREEHPRIYKEVTIHYKIYGNVNEKKARRAIELSQEKYCSASAHLKLSGTDVKYTLEVIRDDEPPSQLNK", "soluble on expression in E. coli": "soluble"}, {"sequence": "MTGITVSDSAARRIAKILDSEPGKTALRVSVEGGGCSGFSYKYDLVDAQTEDDIVIEKLGARVLIDSISVPYMDGSEIDFVDDLMGQSFQIRNPNATASCGCGTSFAILEHHHHHH", "soluble on expression in E. coli": "soluble"}, {"sequence": "MTGNVLNYYAGGNTARGFHNLYEENLKGLDRLFILKGGPGTGKSSLIKAIGREWIEKGYDIEFLHCSSDNKSVDGVIIPKLKVGIVDGTSPHVIEPKMPGVVEEYINLGIAWDSDKLRKQKLEIERFVSEASKAFQSAYARFKEALVIHDEWEKIYIDNIDFNKANELTNQLIQKLFADKSGRQSLVKHRFLGAATPKGAVDFVPNLTEGLPHRYFIKGRPGSGKSTMLKKLAKAAEEKGFEVEVYHCGFDPNSLDMVIVRELGFAIFDSTAPHEYFPSREGDEIIDMYALIVTPGTDEKYAKEIRDVSIQYKAKMNEAMSFLAKAKSIRDKLERIYIAAMDFSIVDAYKEEIQKEFERIAATVIEKQQ", "soluble on expression in E. coli": "not soluble"}, {"sequence": "MTGRIVHFEIPFDDGDRARAFYRDAFGWAIAEIPDMDYSMVTTGPVGESGMPDEPGYINGGMMQRGEVTTPVVTVDVESIESALERIESLGGKTVTGRTPVGNMGFAAYFTDSEGNVVGLWETAR", "soluble on expression in E. coli": "soluble"}, {"sequence": "MTGTGILARPERNHYFSLALAFCSWVRNGYGVFRYSDKELLFLASINGQPAVMADLSGNDADVAQKVSLFLTMNEEPPEKWQVVSPLEHPDNWESIITRLSSADLRRCKLTVGNRSKFTLPAVLFLVAASAGTVFWMTQPEPDVVPTPEEIAARARLQFKKPDPPPELPHPWASQPVISDFLKACADLRKPSPVALEGWKLTGGTCTPETFTLIYERQPGGTIEGFLARSKEIFNVIPDFNLKDGARLASVTRPLPSLPRRDEAVPTPSEQLMRVFTWFQKKQLTPAINEIAIPEPLPGNDGEPAPVQKWKEYQFSLSTPVNPDELFPLFQDTGVRLSNIHFELNGGTFSYSSEGHIYASRLEHHHHHH", "soluble on expression in E. coli": "not soluble"}, {"sequence": "MTHVCSVILIRRSFDIYHEQQKISLHNESILLLEKNLADDFAFCSPDTRRLDIDELTVCHYLQNIRQLPRNLGLHSKDRLLINQSPPMPLVTAIFDSFNESGVNSPILSNMLYLSCLSMFSHKKELIPLLFNSISTVSGKVERLISFDIAKRWYLRDIAERMYTSESLIKKKLQDENTCFSKILLASRMSMARRLLELRQIPLHTIAEKCGYSSTSYFINTFRQYYGVTPHQFAQHSPGTFS", "soluble on expression in E. coli": "not soluble"}, {"sequence": "MTIALELQQLKKTYPGGVQALRGIDLQVEAGDFYALLGPNGAGKSTTIGIISSLVNKTSGRVSVFGYDLEKDVVNAKRQLGLVPQEFNFNPFETVQQIVVNQAGYYGVERKEAYIRSEKYLKQLDLWGKRNERARMLSGGMKRRLMIARALMHEPKLLILDEPTAGVDIELRRSMWGFLKDLNDKGTTIILTTHYLEEAEMLCRNIGIIQHGELVENTSMKALLAKLKSETFILDLAPKSPLPKLDGYQYRLVDTATLEVEVLREQGINSVFTQLSEQGIQVLSMRNKANRLEELFVSLVNEKQGDRA", "soluble on expression in E. coli": "not soluble"}, {"sequence": "MTIATIDIGGTGIKFASLTPDGKILDKTSISTPENLEDLLAWLDQRLSEQDYSGIAMSVPGAVNQETGVIDGFSAVPYIHGFSWYEALSSYQLPVHLENDANCVGLSELLAHPELENAACVVIGTGIGGAMIINGRLHRGRHGLGGEFGYMTTLAPAEKLNNWSQLASTGNMVRYVIEKSGHTDWDGRKIYQEAAAGNILCQEAIERMNRNLAQGLLNIQYLIDPGVISLGGSISQNPDFIQGVKKAVEDFVDAYEEYTVAPVIQACTYHADANLYGALVNWLQEEKQW", "soluble on expression in E. coli": "soluble"}, {"sequence": "MTIDVWMQHPTQRFLHGDMFASLRRWTGGSIPETDIPIEATVSSMDAGGVTLGLLSAWRGPNGQDLISNDAVAEWVRLYPNRFAGLAAVDLDRPMAAVRELRRRVGEGFVGLRVVPWLWGAPPTDRRYYPLFAECVQSAVPFCTQVGHTGPLRPSETGRPIPYIDQVALDFPELVIVCGHVGYPWTEEMVAVARKHENVYIDTSAYTIKRLPGKLVRFMKTDTGQRKVLFGTNYPMIAHTHALTGLDELGLSDEARRDFLHGNAVRVFKLDPRGKVQT", "soluble on expression in E. coli": "not soluble"}, {"sequence": "MTIEHGIWPGKIDIYEKNFNTGQKCMRNPFQNPFPESDTARHSIWEMLVSRDIDAFLAADWSMVADDFVEESFIGVDGRRETNPDKWRLTFPSLAVYRDEWLRQARDFAGQSFAEDPREAIFTTTTLEDIEVDGELALARKKFDGGLKKADGTFDVMKWQTVYYCRLHRGRWKICGFTGYLPNPMGSN", "soluble on expression in E. coli": "soluble"}, {"sequence": "MTIFQFPQDFMWGTATAAYQIEGAYQEDGRGLSIWDTFAHTPGKVFNGDNGNVACDSYHRYEEDIRLMKELGIRTYRFSVSWPRIFPNGDGEVNQEGLDYYHRVVDLLNDNGIEPFCTLYHWDLPQALQDAGGWGNRRTIQAFVQFAETMFREFHGKIQHWLTFNEPWCIAFLSNMLGVHAPGLTNLQTAIDVGHHLLVAHGLSVRRFRELGTSGQIGIAPNVSWAVPYSTSEEDKAACARTISLHSDWFLQPIYQGSYPQFLVDWFAEQGATVPIQDGDMDIIGEPIDMIGINYYSMSVNRFNPEAGFLQSEEINMGLPVTDIGWPVESRGLYEVLHYLQKYGNIDIYITENGACINDEVVNGKVQDDRRISYMQQHLVQVHRTIHDGLHVKGYMAWSLLDNFEWAEGYNMRFGMIHVDFRTQVRTPKESYYWYRNVVSNNWLETRR", "soluble on expression in E. coli": "soluble"}, {"sequence": "MTIKRVGILGAGKVGIVLAGLALKAGYEVRISGSGSVDKIDLTISTLVPGAIASENAEVVANSDIIILAIPLSRYKNIDPTLLKGKLVIDAMNYWWETDGIREEVLDPTLTSSEQVQNYFKDSTIVKTFNHMGYHNLQEEALPKLEHHHHHH", "soluble on expression in E. coli": "soluble"}, {"sequence": "MTIRLNDLGQVYLVCGKTDMRQGIDSLAYLVKSQHELDLFSGAVYLFCGGRRDRFKALYWDGQGFWLLYKRFENGKLAWPRNRDEVKCLTAVQVDWLMKGFFISPNIKISKSHDFY", "soluble on expression in E. coli": "not soluble"}]}]}
